Patent publication US20120010178A1, “METHODS AND COMPOUNDS FOR TREATMENT OF NEURODEGENERATIVE DISORDERS” (PRESIDENT AND FELLOWS OF HARVARD COLLEGE, priority 2008, published 2012)

System: SMN
Test: SMN levels in mouse (ES-cell derived) motor neurons
Format: cell-based
Details: mouse motor neurons
Method: Mouse HB9-GFP derived SMN deficient motor neuron cells were incubated for 2 days with compounds from libraries and collections.
Motor neurons were produced from mouse ES-cells expressing cherry fluorescent protein (CFP) under the control of the motor neuron-selective Hb9 promoter, as previously described (Wichterle et al., 2002).
GFP expressing motor neurons were derived from mouse ES cells as described below. After growing for approximately 1 week, motor neurons were treated with allsterpaullone. Two days after treatment with allsterpaullone, cells were fixed and stained with SMN antibody or GFP antibody.
mES cells were differentiated into motor neurons according to methods adapted from Wichterle et. al., Cell (2002), 110:385-397. Briefly, mES cells were grown to 70-80% confluence in 10-cm plates (Falcon) in ES cell medium. To form embryoid bodies, cells were washed once with PBS to eliminate mES medium and then incubated with 1 ml of 0.25% trypsin (GIBCO) for 5-10 min at 21-25° C. (RT). Cells were then resuspended in 10 ml of DM1 medium (DMEM-F12, GIBCO), 10% knockout serum (GIBCO), penicillin, streptomycin, glutamine (GIBCO) and 2-mercaptoethanol (GIBCO), counted and plated at a concentration of 200,000 cells per ml in Petri dishes (Falcon). […] The cells were counted and plated on poly-ornithine coated 96-well plates (VWR).

B1: BMP4: bone morphogenetic protein 4, BMP/TGFβ ligand (protein, UniProt P12644 293-408, looked up)
Bone morphogenetic protein 4: SPKHHSQRARKKNKNCRRHSLYVDFSDVGWNDWIVAPPGYQAFYCHGDCPFPLADHLNSTNHAIVQTLVNSVNSSIPKACCVPTELSAISMLYLDEYDKVVLKNYQEMVVEGCGCR
SMN levels in motor neurons (in words): increase SMN levels
